Test [1] concerns the target human polyclonal IgG (Gammanorm) (human). In words: SPR (Biacore), remaining IgG binding capacity after 96-100 cycles in 0.5 M NaOH, ratio to Zvar1 reference. In general terms: In SPR one partner is held on a chip, and binding of the other changes the refractive index at the surface.
Test [2] shares this target. Nature of the test: SPR (Biacore), ligand on CM5 chip, 1 mg/ml human polyclonal IgG; remaining IgG binding signal after 96-100 10-min cycles in 0.5 M NaOH.
The target is the same in test [3]. Nature of the test: column Qb10 retention after six 4 h cycles in 0.5 M NaOH, ratio to Zvar4 reference.
The target is the same in test [4]. In words: column Qb10 after six 4 h cycles in 0.5 M NaOH relative to initial, ligand on agarose beads (ligand content 9.7 mg/ml).
The target is the same in test [5]. Nature of the test: column dynamic binding capacity at 10% breakthrough, ligand on agarose beads (ligand content 9.7 mg/ml), Gammanorm 2 mg/ml, 6 min residence time.
Test [6] has the same target. Nature of the test: column Qb10 after six 4 h cycles in 0.5 M NaOH, ligand on agarose beads (ligand content 9.7 mg/ml).
For test [7] the target is unchanged. In words: column dynamic binding capacity at 10% breakthrough, ligand on agarose beads (ligand content 10.8 mg/ml), Gammanorm 2 mg/ml, 6 min residence time.
Test [8] has the same target. In words: column Qb10 after six 4 h cycles in 0.5 M NaOH, ligand on agarose beads (ligand content 10.8 mg/ml).
Test [9] shares this target. In words: column Qb10 after six 4 h cycles in 0.5 M NaOH relative to initial, ligand on agarose beads (ligand content 10.8 mg/ml).

Consider three substances from patent publication US20180327512A1.

Take “Zvar(H18K, S33K, D37E, A42R, N43A, L44I, K50R, L51Y)1 (designed binder)”: the Capacity relative to reference in test [1] worked out at 1.04. In [2], this substance gave a Capacity after 96-100 cycles of 48%.

With “Zvar(N11K, H18K, S33K, D37E, A42R, N43A, L44I, K50R, L51Y)4 (designed binder)”, the Capacity retention relative to ref. after 4 h cycles in [3] turned out to be 1.42. In addition, the Remaining IgG capacity after six 4 h cycles (%) in test [4] stood at 92%. This substance returned an Initial IgG capacity Qb10 in [5] of 56.3 mg/mL. In addition, the Remaining IgG capacity after six 4 h cycles in [6] was determined as 52 mg/mL.

Take “Zvar(Q9A, N11K, H18K, D37E, A42R)4 (designed binder)”: in test [3], the Capacity retention relative to ref. after 4 h cycles amounted to 1.21. Besides, in test [7], the Initial IgG capacity Qb10 was found to be 56.9 mg/mL. The substance further gave a Remaining IgG capacity after six 4 h cycles in test [8] of 52.5 mg/mL. Further, the Remaining IgG capacity after six 4 h cycles (%) in [9] is 92%.
